The values that follow come from patent US20130059773A1, “COMPOUNDS FOR THE TREATMENT OF INFLAMMATION AND NEUTROPENIA” (priority 2010, published 2013).

Test [1] concerns the target T1, procaspase-9 (Homo sapiens, UniProt P55211).
T1 construct: using neutrophil cytosol containing all the apoptosome components, i.e., procaspase-9; endogenous in cells; host or cells: neutrophil cytosol (primary neutrophils)
T1 sequence (P55211 1-416): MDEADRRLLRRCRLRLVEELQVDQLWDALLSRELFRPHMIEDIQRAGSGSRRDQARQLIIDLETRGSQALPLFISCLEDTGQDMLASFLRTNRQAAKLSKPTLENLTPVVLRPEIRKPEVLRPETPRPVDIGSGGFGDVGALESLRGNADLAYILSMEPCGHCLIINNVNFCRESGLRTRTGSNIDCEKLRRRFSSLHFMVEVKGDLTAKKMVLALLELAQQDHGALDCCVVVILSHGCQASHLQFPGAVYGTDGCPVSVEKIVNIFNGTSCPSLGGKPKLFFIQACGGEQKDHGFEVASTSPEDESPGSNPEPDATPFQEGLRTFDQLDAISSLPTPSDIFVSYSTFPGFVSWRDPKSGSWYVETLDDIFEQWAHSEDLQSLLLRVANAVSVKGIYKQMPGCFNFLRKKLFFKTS
The experiment in a line: In vitro procaspase-9 activation assay using neutrophil cytosol, cytochrome c and dATP. In kind it is biochemical. Further details: dose or concentration left out as unconfirmed.
Experimental: That hypothesis was tested by evaluating procaspase-9 cleavage in an in vitro assay, using neutrophil cytosol containing all the apoptosome components, i.e., procaspase-9 and apoptotic protease-activating factor-1 (Apaf-1) as previously described (McStay et al. 2008; Cell Death Differ. 15:322-331).

Test [2] concerns neutrophils. The experiment in a line: Neutrophil apoptosis/survival by phosphatidylserine externalization after annexin-V and 7-AAD labeling. In kind it is cell-based, human. The settings on record: G-CSF 200 or 1000 U/ml, 15 h at 37° C. As for the experimental part:
Analysis of apoptosis. Neutrophil apoptosis was triggered by incubating neutrophils at 37° C. alone (constitutive apoptosis) or with anti-Fas mAb (10 ng/ml; Beckman-Coulter) or gliotoxin ([…]; Sigma) (Ward et al. 1999, J. Biol. Chem. 274:4309-4318) for the indicated times. Neutrophil apoptosis was evaluated by phosphatidylserine externalization after annexin-V and 7-AAD labeling (Kantari et al. 2007, Blood 110:4086-4095); mitochondrial depolarization after DiOC6 labeling (Moriceau et al. 2009, J. Immuno1.182:7254-7263); caspase-3 and caspase-8 activities measured by spectrophotometry (Biovision) in neutrophil lysates. In DMF-differentiated-PLB985 cells, apoptosis was triggered by gliotoxin or by rTRAIL (10 ng/ml; RD System) (Yin et al. 2005, Int. J. Biochem. Cell Biol. 37:1696-1708) and caspase-8 and caspase-9 activities were determined after gating on CD11b^+ cells using the Caspase-Glow® assay (Promega). Apoptosis-induced chromatin condensation and DNA fragmentation were assessed, respectively, after DNA staining with the blue fluorescent dye Hoechst (5 mg/ml) and propidium-iodide staining (Goepel et al. 2004, J. Leukoc. Biol. 75:836-843). Carboxyp21 ([…], SEQ ID NO: 24) corresponding to the p21 carboxy-terminus sequence (residues 141-160) and containing a RYIRS carboxy-terminal extension to facilitate its cell entry was synthesized and purified (Genecust). […]

Test [3] concerns PCNA. The experiment in a line: PCNA expression in neutrophils by Western blot. In kind it is cell-based, human. The settings on record: G-CSF 1000 U/ml, 6 h to 15 h. As for the experimental part: Western blot analysis and co-immunoprecipitation experiments. Neutrophils were sonicated and cytosolic proteins were analyzed using either the PC10 mAb or the Ab5 pAb anti-PCNA according to standard immunoblot procedures (Moriceau et al. 2009, J. Immunol. 182:7254-7263). Co-immunoprecipitation experiments were performed using neutrophil cytosols obtained by cavitation (Witko-Sarsat et al. 1999, Blood 94:2487-2496). Cytosol ([…]) was mixed with […] of protein G and Ab5 pAb and incubated for 30 min at 4° C. under shaking. The sample was loaded onto a column containing Sepharose-coated magnetic beads (Milteny), washed with a stringent washing buffer (50 mM Tris, 500 mM NaCl, 1% NP-40, 0.5% Triton X-100). […] The sample was eluted from the column with […] 5× sample buffer and analyzed by Western blotting using different mAb to potential partners. PCNA was detected on the Western blot with the PC10 mAb and procaspases were detected with either anti-procaspase-8 (Calbiochem) mAb or mouse anti-procaspase-10 (Santa Cruz) or anti-procaspase-9 (Santa Cruz) or anti-procaspase-3 (Santa Cruz) mAbs, followed by horseradish peroxidase-conjugated anti-mouse IgG (Nordic Immunology diluted 1:5000), using the SuperSignal West Pico detection kit (Pierce).
A general note: A western blot detects proteins with antibodies after separation by electrophoresis.

In test [4] the test system is neutrophils. The experiment in a line: Neutrophils isolated from G-CSF-treated healthy donors: PCNA content and constitutive apoptosis. It is filed as in vivo, human. As for the experimental part: Neutrophil isolation, granulocytic differentiation of CD34^+ precursors and cell culture. Human neutrophils from healthy (Etablissement Francais du Sang, Paris) or G-CSF-treated healthy donors ([…] for 5 days to induce hematopoietic stem cells mobilization) (Biotherapy Department, Necker Hospital, France) were isolated from EDTA-anticoagulated blood, using density-gradient centrifugation through polymorphoprep (Nycomed), as described in Witko-Sarsat et al. (1999, Blood 94:2487-2496). […]
Western blot analysis and co-immunoprecipitation experiments. Neutrophils were sonicated and cytosolic proteins were analyzed using either the PC10 mAb or the Ab5 pAb anti-PCNA according to standard immunoblot procedures (Moriceau et al. 2009, J. Immunol. 182:7254-7263). […] The sample was eluted from the column with […] 5× sample buffer and analyzed by Western blotting using different mAb to potential partners. PCNA was detected on the Western blot with the PC10 mAb and procaspases were detected with either anti-procaspase-8 (Calbiochem) mAb or mouse anti-procaspase-10 (Santa Cruz) or anti-procaspase-9 (Santa Cruz) or anti-procaspase-3 (Santa Cruz) mAbs, followed by horseradish peroxidase-conjugated anti-mouse IgG (Nordic Immunology diluted 1:5000), using the SuperSignal West Pico detection kit (Pierce).

B1: Ovalbumin: control protein tested at the same concentration (protein, UniProt P01012 2-386, looked up)
Ovalbumin: GSIGAASMEFCFDVFKELKVHHANENIFYCPIAIMSALAMVYLGAKDSTRTQINKVVRFDKLPGFGDSIEAQCGTSVNVHSSLRDILNQITKPNDVYSFSLASRLYAEERYPILPEYLQCVKELYRGGLEPINFQTAADQARELINSWVESQTNGIIRNVLQPSSVDSQTAMVLVNAIVFKGLWEKAFKDEDTQAMPFRVTEQESKPVQMMYQIGLFRVASMASEKMKILELPFASGTMSMLVLLPDEVSGLEQLESIINFEKLTEWTSSNVMEERKIKVYLPRMKMEEKYNLTSVLMAMGITDVFSSSANLSGISSAESLKISQAVHAAHAEINEAGREVVGSAEAGVDAASVSEEFRADHPFLFCIKHIATNAVLFFGRCVSP
Turning to B1, the “Procaspase-9 cleavage / activation” value in test [1] was “did not affect pro-caspase 9 activation”.

B2: G-CSF: survival factor extending neutrophil longevity (protein, UniProt P09919 31-207, looked up)
Granulocyte …: TPLGPASSLPQSFLLKCLEQVRKIQGDGAALQEKLVSECATYKLCHPEELVLLGHSLGIPWAPLSSCPSQALQLAGCLSQLHSGLFLYQGLLQALEGISPELGPTLDTLQLDVADFATTIWQQMEELGMAPALQPTQGAMPAFASAFQRRAGGVLVASHLQSFLEVSYRVLRHLAQP
Regarding B2, the “Neutrophil survival (annexin-V− 7-AAD− cells)” value in test [2] is given as “prolonged neutrophil survival”. The “Effect on decrease of PCNA expression during incubation at 37° C.” value in test [3] is “totally prevented”. The “PCNA content of neutrophils from treated donors (immunoblotting)” value in test [4] (healthy donors treated with G-CSF for 5 days, compared to before treatment) is on record as “markedly increased”. For the same molecule, the “Constitutive apoptosis of neutrophils from treated donors” value in test [4] (healthy donors treated with G-CSF, 15-h culture) is given as “decreased tendency of these neutrophils to undergo constitutive apoptosis”.
